Assay results from US20120238493A1 (INDIANA UNIVERSITY RESEARCH AND TECHNOLOGY, published 2012).
Where two headings read alike, the source gives them in different places. *1 amine or outer side, *2 acyl side, *3 side chain or, on linkers, in order; H or OH if unused. Where no end group is shown, it is not given here. Side-chain parts run from the residue outwards. [ ]: non-standard residue; d: D form. The star is where a group is joined. Isobutyryl(2-imidazol-4-yl) = CC(C)(C(=O)*)c1c[nH]cn1; γGlu = O=C(O)[C@H](CCC(=O)[*:2])N[*:1]; Palmitoyl = CCCCCCCCCCCCCCCC(=O)*; Lauroyl = CCCCCCCCCCCC(=O)*; 40K‑TE = not defined here; Ac3c = NC1(C(=O)O)CC1; Aib = CC(C)(N)C(=O)O

T1: GIP receptor (UniProt P48546 22-466, limits assumed)
T1 sequence (looked up): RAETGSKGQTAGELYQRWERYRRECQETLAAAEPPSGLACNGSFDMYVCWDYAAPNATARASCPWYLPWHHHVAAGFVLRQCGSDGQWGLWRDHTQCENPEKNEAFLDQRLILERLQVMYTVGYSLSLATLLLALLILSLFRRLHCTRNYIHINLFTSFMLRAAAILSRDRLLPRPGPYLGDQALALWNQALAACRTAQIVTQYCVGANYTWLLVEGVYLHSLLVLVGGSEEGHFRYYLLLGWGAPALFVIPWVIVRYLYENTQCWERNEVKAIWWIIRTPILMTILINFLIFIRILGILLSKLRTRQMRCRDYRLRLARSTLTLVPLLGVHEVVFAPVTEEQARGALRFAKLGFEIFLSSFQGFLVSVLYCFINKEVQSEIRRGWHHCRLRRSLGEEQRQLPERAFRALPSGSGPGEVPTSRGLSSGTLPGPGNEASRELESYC


Columns and labels:
Test in all cases: cell-based or functional assay
[1] = molecular target: T2, glucagon receptor (UniProt P47871 26-477, limits assumed)
[2] = molecular target: T3, GLP-1 receptor (UniProt P43220 24-463, limits assumed)
[3] = molecular target: T1, GIP receptor
[4] = molecular target: T2, glucagon receptor; remark: listed apart in the source
[5] = molecular target: T3, GLP-1 receptor; remark: listed apart in the source
[6] = molecular target: T1, GIP receptor; remark: listed apart in the source

T2 sequence (P47871 26-477 limits assumed): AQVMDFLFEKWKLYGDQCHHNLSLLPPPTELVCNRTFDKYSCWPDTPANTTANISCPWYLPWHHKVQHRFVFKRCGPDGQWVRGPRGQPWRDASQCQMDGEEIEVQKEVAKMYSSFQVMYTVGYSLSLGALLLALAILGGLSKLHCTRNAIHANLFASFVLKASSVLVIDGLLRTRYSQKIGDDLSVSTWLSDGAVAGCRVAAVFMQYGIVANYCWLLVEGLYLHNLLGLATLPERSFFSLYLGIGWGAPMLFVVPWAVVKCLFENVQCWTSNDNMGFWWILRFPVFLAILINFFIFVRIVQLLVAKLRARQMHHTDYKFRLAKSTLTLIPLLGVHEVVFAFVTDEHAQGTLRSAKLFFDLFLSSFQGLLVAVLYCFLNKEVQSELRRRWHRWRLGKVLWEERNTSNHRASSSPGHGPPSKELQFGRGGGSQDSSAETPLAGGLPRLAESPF

Binder | EC50 (cAMP reporter) [1] [nM] | EC50 (cAMP reporter) [2] [nM] | EC50 (cAMP reporter) [3] [nM] | EC50 (cAMP reporter) [4] [nM] | EC50 (cAMP reporter) [5] [nM] | EC50 (cAMP reporter) [6] [nM]
[Isobutyryl(2-imidazol-4-yl)][dS]QGTFTSDKSKYLDERAAQDFVQWLLDT-NH2 (not fully specified (residue 10)) [Analog No. 44: DMIA1, dSer2, K10acyl, E16, A18, L27, D28 (SEQ ID NO: 32)] | 0.004 | 0.003 | 0.103 |  |  | 
Y[Aib]QGTFTSDK([γGlu-γGlu-Palmitoyl])SIYLDKQAA[Aib]EFVNWLLAGGPSSGAPPPS-NH2 (N-terminus assumed; SMILES CCCCCCCCCCCCCCCC(=O)N[C@@H](CCC(=O)N[C@@H](CCC(=O)NCCCC[C@H](NC(=O)[C@H](CC(=O)O)NC(=O)[C@H](CO)NC(=O)[C@@H](NC(=O)[C@H](Cc1ccccc1)NC(=O)[C@@H](NC(=O)CNC(=O)[C@H](CCC(N)=O)NC(=O)C(C)(C)NC(=O)[C@@H](N)Cc1ccc(O)cc1)[C@@H](C)O)[C@@H](C)O)C(=O)N[C@@H](CO)C(=O)N[C@H](C(=O)N[C@@H](Cc1ccc(O)cc1)C(=O)N[C@@H](CC(C)C)C(=O)N[C@@H](CC(=O)O)C(=O)N[C@@H](CCCCN)C(=O)N[C@@H](CCC(N)=O)C(=O)N[C@@H](C)C(=O)N[C@@H](C)C(=O)NC(C)(C)C(=O)N[C@@H](CCC(=O)O)C(=O)N[C@@H](Cc1ccccc1)C(=O)N[C@H](C(=O)N[C@@H](CC(N)=O)C(=O)N[C@@H](Cc1c[nH]c2ccccc12)C(=O)N[C@@H](CC(C)C)C(=O)N[C@@H](CC(C)C)C(=O)N[C@@H](C)C(=O)NCC(=O)NCC(=O)N1CCC[C@H]1C(=O)N[C@@H](CO)C(=O)N[C@@H](CO)C(=O)NCC(=O)N[C@@H](C)C(=O)N1CCC[C@H]1C(=O)N1CCC[C@H]1C(=O)N1CCC[C@H]1C(=O)N[C@@H](CO)C(N)=O)C(C)C)[C@@H](C)CC)C(=O)O)C(=O)O) [peptide of SEQ ID NO: 81] |  |  |  | 0.073 | 0.008 | 0.005
Y[Aib]QGTFTSDYSIYLDKQAA[Aib]EFVC(40K‑TE PEG)WLLAGGPSSGAPPPSK(C8)-NH2 [peptide of SEQ ID NO: 172] |  |  |  | 3.06 | 0.108 | 0.487
H[Aib]QGTFTSDK([γGlu-Palmitoyl])SKYLDERRA[Aib]EFVQWLLDGGPSSGAPPPS-NH2 (N-terminus assumed; SMILES CCCCCCCCCCCCCCCC(=O)N[C@@H](CCC(=O)NCCCC[C@H](NC(=O)[C@H](CC(=O)O)NC(=O)[C@H](CO)NC(=O)[C@@H](NC(=O)[C@H](Cc1ccccc1)NC(=O)[C@@H](NC(=O)CNC(=O)[C@H](CCC(N)=O)NC(=O)C(C)(C)NC(=O)[C@@H](N)Cc1c[nH]cn1)[C@@H](C)O)[C@@H](C)O)C(=O)N[C@@H](CO)C(=O)N[C@@H](CCCCN)C(=O)N[C@@H](Cc1ccc(O)cc1)C(=O)N[C@@H](CC(C)C)C(=O)N[C@@H](CC(=O)O)C(=O)N[C@@H](CCC(=O)O)C(=O)N[C@@H](CCCNC(=N)N)C(=O)N[C@@H](CCCNC(=N)N)C(=O)N[C@@H](C)C(=O)NC(C)(C)C(=O)N[C@@H](CCC(=O)O)C(=O)N[C@@H](Cc1ccccc1)C(=O)N[C@H](C(=O)N[C@@H](CCC(N)=O)C(=O)N[C@@H](Cc1c[nH]c2ccccc12)C(=O)N[C@@H](CC(C)C)C(=O)N[C@@H](CC(C)C)C(=O)N[C@@H](CC(=O)O)C(=O)NCC(=O)NCC(=O)N1CCC[C@H]1C(=O)N[C@@H](CO)C(=O)N[C@@H](CO)C(=O)NCC(=O)N[C@@H](C)C(=O)N1CCC[C@H]1C(=O)N1CCC[C@H]1C(=O)N1CCC[C@H]1C(=O)N[C@@H](CO)C(N)=O)C(C)C)C(=O)O) [peptide of SEQ ID NO: 79] |  |  |  | 0.004 | 0.006 | 0.003
H[Aib]QGTFISDYSIYLDKQAA[Ac3c]EFVNWLLAGGPSSGAPPPSC(40K‑TE)-NH2 (not fully specified; reading uncertain) [peptide of SEQ ID NO: 74] |  |  |  | 2.52 | 6.42 | 2.54
H[Aib]QGTFTSDKSKYLD[Aib]RAAQDFVQWLMDGGPSSGAPPPS-NH2 (not fully specified (residue 10)) [Analog No. 49: Aib2, K10acyl, Aib16, A10, D28, G29 + CEX (SEQ ID NO: 33)] | 0.005 | 0.004 | 0.248 |  |  | 
H[Aib]QGTFTSDKSKYLD[Aib]RAAQDFVQWLKDGGPSSGAPPPS-NH2 (not fully specified (residue 10)) [Analog No. 54: Aib2, K10acyl, Aib16, A18, K27, D28, G29 + CEX (SEQ ID NO: 36)] | 0.008 | 0.004 | 0.171 |  |  | 
H[dS]QGTFTSDKSKYLDERAAQDFVQWLLDGGPSSGAPPPS-NH2 (not fully specified (residue 10)) [Analog No. 29: dSer2, K10acyl, E16, A18, L27, D28, G29 + CEX (SEQ ID NO: 27)] | 0.003 | 0.002 | 0.085 |  |  | 
YXEGTFTSDYSIYLDKQAAXEFVNWLLAGGPSSGAPPPSC (not fully specified; aib at 2; acpc at 20; C-terminal C(40K-TE); NH2) [peptide of SEQ ID NO: 73] |  |  |  | ~10 | 0.91 | 1.56
H[dS]QGTFTSDKSKYLDERRA[Aib]EFVQWLLDT-NH2 (not fully specified (residue 10)) [Analog No. 36: dSer2, K10acyl, E16, Aib20, E21, L27, D28 (SEQ ID NO: 30)] | 0.008 | 0.0031 | 0.25 |  |  | 
Y[Aib]QGTFISDYSIYLDKQAA[Ac3c]EFVNWLLAGGPSSGAPPPSC(40K‑TE)-NH2 (not fully specified; reading uncertain) [peptide of SEQ ID NO: 75] |  |  |  | 3.12 | 17.7 | 2.44
H[Aib]EGTFTSDKSKYLDERRA[Aib]EFVQWLLDT-NH2 (not fully specified (residue 10)) [Analog No. 64: Aib2, E3, K10acyl, E16, Aib20, E21, L27, D28 (SEQ ID NO: 40)] | 0.042 | 0.006 | 0.024 |  |  | 
H[Aib]QGTFTSDK(Palmitoyl)SKYLD[Aib]RAAQDFVQWLVKGGPSSGAPPPS-NH2 [Analog No. 53: Aib2, K10acyl, Aib16, A18, V27, K28, G29 + CEX (SEQ ID NO: 35)] | 0.011 | 0.005 | 0.073 |  |  | 
H[Aib]EGTFTSDK([γGlu-Palmitoyl])SKYLDERAAQDFVQWLLDGGPSSGAPPPS-NH2 (N-terminus assumed; SMILES CCCCCCCCCCCCCCCC(=O)N[C@@H](CCC(=O)NCCCC[C@H](NC(=O)[C@H](CC(=O)O)NC(=O)[C@H](CO)NC(=O)[C@@H](NC(=O)[C@H](Cc1ccccc1)NC(=O)[C@@H](NC(=O)CNC(=O)[C@H](CCC(=O)O)NC(=O)C(C)(C)NC(=O)[C@@H](N)Cc1c[nH]cn1)[C@@H](C)O)[C@@H](C)O)C(=O)N[C@@H](CO)C(=O)N[C@@H](CCCCN)C(=O)N[C@@H](Cc1ccc(O)cc1)C(=O)N[C@@H](CC(C)C)C(=O)N[C@@H](CC(=O)O)C(=O)N[C@@H](CCC(=O)O)C(=O)N[C@@H](CCCNC(=N)N)C(=O)N[C@@H](C)C(=O)N[C@@H](C)C(=O)N[C@@H](CCC(N)=O)C(=O)N[C@@H](CC(=O)O)C(=O)N[C@@H](Cc1ccccc1)C(=O)N[C@H](C(=O)N[C@@H](CCC(N)=O)C(=O)N[C@@H](Cc1c[nH]c2ccccc12)C(=O)N[C@@H](CC(C)C)C(=O)N[C@@H](CC(C)C)C(=O)N[C@@H](CC(=O)O)C(=O)NCC(=O)NCC(=O)N1CCC[C@H]1C(=O)N[C@@H](CO)C(=O)N[C@@H](CO)C(=O)NCC(=O)N[C@@H](C)C(=O)N1CCC[C@H]1C(=O)N1CCC[C@H]1C(=O)N1CCC[C@H]1C(=O)N[C@@H](CO)C(N)=O)C(C)C)C(=O)O) [peptide of SEQ ID NO: 80] |  |  |  | 1.28 | 0.008 | 0.026
H[Aib]EGTFTSDK(Palmitoyl)SKYLDERRA[Aib]DFVQWLLDGGPSSGAPPPS-NH2 [Analog No. 65: Aib2, E3, K10acyl, E16, Aib20, L27, D28, G29 + CEX (SEQ ID NO: 41)] | 0.221 | 0.006 | 0.013 |  |  | 
H[Aib]QGTFTSDKSKYLDERAAQDFVQWLLDGRG-NH2 (not fully specified (residue 10)) [Analog No. 34: Aib2, K10acyl, E16, A18, L27, D28, GRG29-31 (SEQ ID NO: 29)] | 0.007 | 0.003 | 0.064 |  |  | 
Y[Aib]EGTFTSDYSIYLDKQAA[Aib]EFVNWLLAGGPSSGAPPPSC(PEG 40 kDa)-NH2 [peptide of SEQ ID NO: 175] |  |  |  | 0.62 | 0.066 | 0.1
Y[Aib]QGTFTSDYSIYLDKQAA[Aib]EFVC(40K‑TE PEG)WLLAGGPSSGAPPPSK(Lauroyl)-NH2 [peptide of SEQ ID NO: 173] |  |  |  | 0.19 | 0.011 | 0.089
